Assay [1] addresses T1, CD47 (UniProt Q08722 19-323, limits assumed).
T1 construct: whole, on cells; The assay used a labelled whole membrane preparation from Jurkat or MEC-1 cells, not purified CD47; also called CD47 receptor
The experiment in a line: Microscale thermophoresis (MST); NT-647-labelled Jurkat or MEC-1 cell membrane preparation held constant, peptide titrated; linear peptide PKT16, FIG. 5. The protocol: (§1) Jurkat or Mec-1 cell membrane preparations are labeled using the Nanotemper NT-647 labeling kit as described elsewhere.xliv The labeled preparation is eluted with PBS and stored at 4° C. A stock solution of each peptide is prepared in DMSO (5 mM) and then diluted with PBS. For the peptides evaluated by MST, we have kept the concentration of the NT.115-labeled membrane constant, while the concentration of the ligand (peptide) was varied. After a short incubation the samples were loaded into MST premium glass capillaries and the MST analysis was performed using the Monolith NT.115-pico. […]
(§2) Binding affinity measurements. The binding affinities of peptides, here PKT16, PKTD1, PKTD10, PKTD10-1, PKTD10-3, PKTD10-5, PKDT10-7 and PKTD10-8 for a membrane preparation from Jurkat and/or MEC-1 cells were measured by Microscale Thermophoresis ^xlv on a Monolith NT115-pico system (Nanotemper Technologies, Munich, Germany).
(§3) Binding curve measured by MST. […] A local temperature difference ΔT leads to a local change in molecule concentration (depletion or enrichment), quantified by the Soret coefficient ST: cₕₒₜ/ccold=exP(−STΔT). […] For the peptides evaluated by MST, we have kept the concentration of the NT.115-labeled membrane constant, while the concentration of the ligand (peptide) was varied.
For orientation: Microscale thermophoresis detects binding through changes in fluorescence in a small temperature gradient.

Assay [2] addresses T1, CD47. Put plainly: Microscale thermophoresis (MST); NT-647-labelled Jurkat or MEC-1 cell membrane preparation held constant, peptide titrated; cyclic peptide PKTD10, FIG. 6. The protocol:
as §1, §2, §3

In assay [3] the target is T1, CD47. The experiment in a line: Microscale thermophoresis (MST); NT-647-labelled Jurkat or MEC-1 cell membrane preparation held constant, peptide titrated; cyclic peptide PKTD1, FIG. 6. The protocol: as §1, §2, §3

Non-standard residues stand in square brackets, D forms with d. No end group written: not given here. NMeR = CN[C@@H](CCCNC(=N)N)C(=O)O; Nle = CCCC[C@H](N)C(=O)O

Data on three molecules can be found in patent US20190135865A1 (SORBONNE UNIVERSITE, published 2019).

T1 sequence (Q08722 19-323 limits assumed): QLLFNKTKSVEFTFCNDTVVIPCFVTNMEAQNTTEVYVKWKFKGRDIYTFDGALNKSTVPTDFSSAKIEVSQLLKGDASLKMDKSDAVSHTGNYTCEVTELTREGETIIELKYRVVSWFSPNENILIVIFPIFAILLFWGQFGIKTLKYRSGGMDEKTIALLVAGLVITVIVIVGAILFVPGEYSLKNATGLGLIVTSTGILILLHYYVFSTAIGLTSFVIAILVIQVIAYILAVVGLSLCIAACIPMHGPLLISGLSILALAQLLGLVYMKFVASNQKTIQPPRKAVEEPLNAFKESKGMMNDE

Broadly, the Kd is the free concentration of one partner at which half of the binding sites on the other are occupied at equilibrium, for simple one-to-one binding. A low value points to higher affinity. With [dK][NMeR]FYVV[Nle]WK[dK] (also called linear PKT16 peptide) [PKT16 [(D)Lys-(N-Me)Arg-Phe-Tyr-Val-Val-Nle-Trp-Lys-(D)Lys]], the equilibrium dissociation constant (Kd) in the assay with CD47 [1] was determined as 1600 nM. This lies in the single-digit micromolar range.

B1: PKTD10 (peptide)
peptide: SRFYVVMWKPPGLSVKVVNS
HELM: PEPTIDE1{S.R.F.Y.V.V.M.W.K.[dP].P.G.L.S.V.K.V.V.N.S}$PEPTIDE1,PEPTIDE1,1:R1-20:R2$$$V2.0
SMILES: CSCC[C@@H]1NC(=O)[C@H](C(C)C)NC(=O)[C@H](C(C)C)NC(=O)[C@H](Cc2ccc(O)cc2)NC(=O)[C@H](Cc2ccccc2)NC(=O)[C@H](CCCNC(=N)N)NC(=O)[C@H](CO)NC(=O)[C@H](CO)NC(=O)[C@H](CC(N)=O)NC(=O)[C@H](C(C)C)NC(=O)[C@H](C(C)C)NC(=O)[C@H](CCCCN)NC(=O)[C@H](C(C)C)NC(=O)[C@H](CO)NC(=O)[C@H](CC(C)C)NC(=O)CNC(=O)[C@@H]2CCCN2C(=O)[C@H]2CCCN2C(=O)[C@H](CCCCN)NC(=O)[C@H](Cc2c[nH]c3ccccc23)NC1=O
notes: Cyclic peptide, linear representation -S-R-F-Y-V-V-M-W-K-p-P-G-L-S-V-K-V-V-N-S-
On to B1, for which, in the assay with CD47 [2], binding was characterised by a dissociation constant (Kd) of 49 nM.

B2: PKTD1 (peptide)
peptide: SRFYVVMWKPPGISVKVVKS
HELM: PEPTIDE1{S.R.F.Y.V.V.M.W.K.[dP].P.G.I.S.V.K.V.V.K.S}$PEPTIDE1,PEPTIDE1,1:R1-20:R2$$$V2.0
SMILES: CC[C@H](C)[C@@H]1NC(=O)CNC(=O)[C@@H]2CCCN2C(=O)[C@H]2CCCN2C(=O)[C@H](CCCCN)NC(=O)[C@H](Cc2c[nH]c3ccccc23)NC(=O)[C@H](CCSC)NC(=O)[C@H](C(C)C)NC(=O)[C@H](C(C)C)NC(=O)[C@H](Cc2ccc(O)cc2)NC(=O)[C@H](Cc2ccccc2)NC(=O)[C@H](CCCNC(=N)N)NC(=O)[C@H](CO)NC(=O)[C@H](CO)NC(=O)[C@H](CCCCN)NC(=O)[C@H](C(C)C)NC(=O)[C@H](C(C)C)NC(=O)[C@H](CCCCN)NC(=O)[C@H](C(C)C)NC(=O)[C@H](CO)NC1=O
notes: Cyclic peptide, linear representation -S-R-F-Y-V-V-M-W-K-p-P-G-I-S-V-K-V-V-K-S-
For the molecule B2, the affinity with CD47 [3], expressed as Kd, was 1.9 nM. In other words, the single-digit nanomolar range.
